From paper PMC11989750, “Mating Increases CHST10 Activity in Rat Oviductal Mucosa to Induce the Synthesis of HNK-1 Glycoproteins: Possible Role in Sperm–Oviduct Interactions” (International Journal of Molecular Sciences, 2025) come the findings set out here.

Substrate in data set [1]: O=C1OC(c2ccc(O)cc2)(c2ccc(O[C@@H]3O[C@H](C(=O)O)[C@@H](O)[C@H](O)[C@H]3O)cc2)c2ccccc21
Kind of data set: malachite green phosphate assay coupled to phosphatase CP3, A620. Format: biochemical, Homo sapiens. The conditions noted are these: acceptor substrate, PAPS as donor, 37 °C, 20 min.

Substrate in data set [2]: [H][C@@]12CCc3cc(O[C@@H]4O[C@H](C(=O)O)[C@@H](O)[C@H](O)[C@H]4O)ccc3[C@@]1([H])CC[C@]1(C)[C@@H](O)CC[C@@]21[H]
The description is as above. Format: biochemical, Homo sapiens. The note with it: acceptor substrate, PAPS as donor, 37 °C, 20 min.

B1: human recombinant CHST10 (Homo sapiens) (protein)
chain: TFKDPDVYSAKQEFLFLTTMPEVRKLPEEKHIPEELKPTGKELPDSQLVQPLVYMERLELIRNVCRDDALKNLSHTPVSKFVLDRIFVCDKHKILFCQTPKVGNTQWKKVLIVLNGAFSSIEEIPENVVHDHEKNGLPRLSSFSDAEIQKRLKTYFKFFIVRDPFERLISAFKDKFVHNPRFEPWYRHEIAPGIIRKYRRNRTETRGIQFEDFVRYLGDPNHRWLDLQFGDHIIHWVTYVELCAPCEIMYSVIGHHETLEDDAPYILKEAGIDHLVSYPTIPPGITVYNRTKVEHYFLGISKRDIRRLYARFEGDFKLFGYQKPDFLLN
notes: commercial recombinant protein (R&D Systems 6140-ST)
By Km is commonly meant the substrate concentration at which the rate is half of its maximum. As to B1, the values for the Michaelis constant (Km) in data set [1] and in data set [2] were 41.6 ± 2.4 µM and 73.9 ± 5.4 µM, respectively.
